Publication PMC5571939

Tests used:
[1] = target: Alexa488-labeled VAMP2 E78C (GST-cleaved) (rat) (UniProt P63045); assay: fluorescence polarisation; SNARE complex formation by fluorescence anisotropy, all in solution: 700 nM SNAP23, 100 nM Alexa488-labeled VAMP2, 700 nM Sx4 variant, no Munc18c; 25°C; 25 mM HEPES pH 8.0, 200 mM NaCl, 1 mM TCEP, 2% glycerol
[2] = target: Alexa488-labeled VAMP2 E78C (GST-cleaved) (rat) (UniProt P63045); assay: fluorescence polarisation; SNARE complex formation by fluorescence anisotropy, all in solution: 700 nM SNAP23, 100 nM Alexa488-labeled VAMP2, 700 nM Sx4 variant, in the presence of 500 nM HMunc18c; 25°C; 25 mM HEPES pH 8.0, 200 mM NaCl, 1 mM TCEP, 2% glycerol
HL-Munc18c (mouse) = HL-Munc18c (mouse) (UniProt Q60770); assay: BLI; HL-Munc18c immobilised on Ni-NTA biosensors; de-tagged Sx4 constructs 25–400 nM in solution; BLItz; 1:1 fit
HL-Munc18c (mouse), sequence (Q60770 whole entry): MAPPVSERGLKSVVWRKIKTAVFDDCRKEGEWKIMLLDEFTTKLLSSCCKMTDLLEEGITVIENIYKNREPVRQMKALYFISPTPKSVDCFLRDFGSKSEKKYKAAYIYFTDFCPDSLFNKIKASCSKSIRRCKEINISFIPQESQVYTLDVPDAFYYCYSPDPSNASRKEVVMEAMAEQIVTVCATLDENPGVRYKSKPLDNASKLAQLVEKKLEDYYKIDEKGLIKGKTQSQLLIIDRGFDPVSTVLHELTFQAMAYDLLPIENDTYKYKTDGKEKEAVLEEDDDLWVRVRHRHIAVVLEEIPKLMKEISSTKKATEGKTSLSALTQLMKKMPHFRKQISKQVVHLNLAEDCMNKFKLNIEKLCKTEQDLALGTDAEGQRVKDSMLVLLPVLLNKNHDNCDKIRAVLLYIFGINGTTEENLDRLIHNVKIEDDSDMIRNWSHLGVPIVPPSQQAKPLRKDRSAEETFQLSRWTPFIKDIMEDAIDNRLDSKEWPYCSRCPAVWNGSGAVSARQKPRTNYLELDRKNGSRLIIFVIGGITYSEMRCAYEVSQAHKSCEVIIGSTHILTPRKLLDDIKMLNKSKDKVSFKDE

Alexa488-labeled VAMP2 E78C (GST-cleaved) (rat), sequence (P63045 1-96 E78C): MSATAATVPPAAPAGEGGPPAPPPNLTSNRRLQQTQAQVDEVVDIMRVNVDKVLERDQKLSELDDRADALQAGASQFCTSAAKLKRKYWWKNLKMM

| Substance | kobs of SNARE complex formation with m13 [1] [s⁻¹] | kobs of SNARE complex formation with m13 [2] [s⁻¹] | Kd (HL-Munc18c (mouse)) [nM] | koff (HL-Munc18c (mouse)) [s⁻¹] | kon (HL-Munc18c (mouse)) [M⁻¹ s⁻¹] |
| --- | --- | --- | --- | --- | --- |
| Sx4_(30-275)-His (from UniProt Q08850 30-275) (domain or fragment) | 0.00049 | 0.00048 |  |  |  |
| Sx4_(1-275)-T4L (de-tagged) (from UniProt Q08850 1-275; P00720 1-164) |  |  | 31 | 0.009 | 290000 |
| Sx4_(30-275)-T4L-His (from UniProt Q08850 30-275; P00720 1-164) | 0.00048 | 0.0005 |  |  |  |
| Sx4_(1-275) (de-tagged) (from UniProt Q08850 1-275) (domain or fragment) |  |  | 72 | 0.022 | 300000 |
